Test results published in patent US20220041738A1 (SAITAMA MEDICAL UNIVERSITY, published 2022).

T1: Recombinant Human ALK2 Fc Chimera (Sino Biological Inc.) (human, UniProt Q04771 21-123)
T1 construct: Bought product; not shown: Fc of the bought chimera
T1 sequence: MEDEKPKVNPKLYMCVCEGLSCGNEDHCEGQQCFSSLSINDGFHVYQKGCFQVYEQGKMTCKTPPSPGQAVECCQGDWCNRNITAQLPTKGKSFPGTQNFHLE

T2: human ALK2 extracellular domain with C-terminal His tag (E. coli) (human, UniProt Q04771 21-123)
T2 construct: Expressed in E. coli SHuffle T7, purified to a single band of 12 kDa; also called ALK2-ECD; human ALK2-ECD; not shown: C-terminal His tag from pET-28b(+)
T2 sequence: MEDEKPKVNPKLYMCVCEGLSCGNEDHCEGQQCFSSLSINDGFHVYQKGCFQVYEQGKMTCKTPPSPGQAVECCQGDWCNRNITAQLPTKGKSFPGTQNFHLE

B1: humanized hA2-27D-H2/L2 (antibody, human IgG1)
heavy: not shown
light: EIVLTQSPGTLSLSPGERATLSCLASSSVSYMTWYQQKPGQSPRLWIYGTSNLASGVPDRFSGSGSGTDFTLTISRLEPEDFAVYYCLHLTSYPPYTFGQGTKVEIKRAVAAPSVFIFPPSDEQLKSGTASVVCLLNNFYPREAKVQWKVDNALQSGNSQESVTEQDSKDSTYSLSSTLTLSKADYEKHKVYACEVTHQGLSSPVTKSFNRGEC
notes: Human IgG1, kappa; also called humanized A2-27D antibody (IgG1)
B2: humanized hA2-27D-H3/L4 (antibody, human IgG1)
heavy: not shown
light: EIVLTQSPGTMSASPGERVTLSCLASSSVSYMTWYQQKPGASPRLWIYGTSNLASGVPDRFSGSGSGTDYTLTISRMEPEDFATYYCLHLTSYPPYTFGAGTKLELKRAVAAPSVFIFPPSDEQLKSGTASVVCLLNNFYPREAKVQWKVDNALQSGNSQESVTEQDSKDSTYSLSSTLTLSKADYEKHKVYACEVTHQGLSSPVTKSFNRGEC
notes: as for B1
B3: humanized hA2-15A-H4/L6 (antibody, human IgG1)
heavy: not shown
light: DIVLTQSPDSLAVSLGERATINCRANQGVSLSRYNLMHWYQQKPGQKPKLLIYRSSNLAQGIPARFSGSGSGTDFTLTISSVQADDIAVYYCQQSRESPFTFGQGTKLELKRAVAAPSVFIFPPSDEQLKSGTASVVCLLNNFYPREAKVQWKVDNALQSGNSQESVTEQDSKDSTYSLSSTLTLSKADYEKHKVYACEVTHQGLSSPVTKSFNRGEC
notes: Human IgG1, kappa; also called humanized A2-15A antibody (IgG1)
B4: humanized hA2-11E-H3/L3 (antibody, human IgG1, kappa, V domains shown)
VH: EVQLVESGGGLVQPGGSLRLSCAASGFTFSNYYMYWIRQAPGKGLEWVSSINTDGGSTYYADSVKGRFTISRDNSKNTVYLQMNSLRAEDTAVYYCAKSTPNIPLAYWGQGTLVTVSS
VL: DIQMTQSPSSLSASVGDRVTITCKASQNIYKYLNWFQQKPGKAPKLLIYYSNSLQTGIPSRFSGSGSGTDFTLTISSLQPEDFATYYCFQYSSGPTFGQGTKVEIKR
notes: Human IgG1, kappa; used as culture supernatant of FreeStyle 293F cells
B5: humanized hA2-11E-H3/L4 (antibody, human IgG1, kappa, V domains shown)
VH: EVQLVESGGGLVQPGGSLRLSCAASGFTFSNYYMYWIRQAPGKGLEWVSSINTDGGSTYYADSVKGRFTISRDNSKNTVYLQMNSLRAEDTAVYYCAKSTPNIPLAYWGQGTLVTVSS
VL: DIQMTQSPSSLSASVGDRVTISCKASQNIYKYLNWFQQKPGEAPKLLIYYSNSLQTGIPSRFSGSGSGTDFTLTISSLQPEDFAIYFCFQYSSGPTFGPGTKVEIKR
notes: as for B4
B6: humanized hA2-11E-H4/L4 (antibody, human IgG1, kappa, V domains shown)
VH: EVQLVESGGGLVQPGGSLRLSCAASGFTFSNYYMYWIRQAPGKGLEWISSINTDGGSTYYPDSVKGRFTISRDNSKNTVYLQMNSLRAEDTAVYYCAKSTPNIPLAYWGQGTLVTVSS
VL: DIQMTQSPSSLSASVGDRVTISCKASQNIYKYLNWFQQKPGEAPKLLIYYSNSLQTGIPSRFSGSGSGTDFTLTISSLQPEDFAIYFCFQYSSGPTFGPGTKVEIKR
notes: as for B4
B7: humanized hA2-11E-H4/L2 (antibody, human IgG1, kappa, V domains shown)
VH: EVQLVESGGGLVQPGGSLRLSCAASGFTFSNYYMYWIRQAPGKGLEWISSINTDGGSTYYPDSVKGRFTISRDNSKNTVYLQMNSLRAEDTAVYYCAKSTPNIPLAYWGQGTLVTVSS
VL: DIQMTQSPSSLSASVGDRVTITCKASQNIYKYLNWFQQKPGKAPKLLIYYSNSLQTGVPSRFSGSGSGTDFTLTISSLQPEDFATYYCFQYSSGPTFGQGTKVEIKR
notes: as for B4
B8: humanized hA2-11E-H3/L2 (antibody, human IgG1, kappa, V domains shown)
VH: EVQLVESGGGLVQPGGSLRLSCAASGFTFSNYYMYWIRQAPGKGLEWVSSINTDGGSTYYADSVKGRFTISRDNSKNTVYLQMNSLRAEDTAVYYCAKSTPNIPLAYWGQGTLVTVSS
VL: DIQMTQSPSSLSASVGDRVTITCKASQNIYKYLNWFQQKPGKAPKLLIYYSNSLQTGVPSRFSGSGSGTDFTLTISSLQPEDFATYYCFQYSSGPTFGQGTKVEIKR
notes: as for B4
B9: humanized hA2-11E-H4/L3 (antibody, human IgG1, kappa, V domains shown)
VH: EVQLVESGGGLVQPGGSLRLSCAASGFTFSNYYMYWIRQAPGKGLEWISSINTDGGSTYYPDSVKGRFTISRDNSKNTVYLQMNSLRAEDTAVYYCAKSTPNIPLAYWGQGTLVTVSS
VL: DIQMTQSPSSLSASVGDRVTITCKASQNIYKYLNWFQQKPGKAPKLLIYYSNSLQTGIPSRFSGSGSGTDFTLTISSLQPEDFATYYCFQYSSGPTFGQGTKVEIKR
notes: as for B4
B10: humanized hA2-25C-H3/L2 (antibody, human IgG1, kappa, V domains shown)
VH: EVQLVESGGGLVQPGGSLRLSCAASGFTFSYYAMSWVRQAPGKGLEWVASISRGGDNTYYRDSVKGRFTTSRDNSKNTLYLQMNSLRAEDTAVYYCARLNYNNYFDYWGQGTLVTVSS
VL: DIQMTQSPSSLSASVGDRVTITCQASQDIGNWLSWYQQKPGKAPKLLIYGATSLADGVPSRFSGSRSGTDYTLTISSLQPEDFATYYCLQAYSAPFTFGQGTKVEIKR
notes: as for B4
B11: humanized hA2-25C-H4/L2 (antibody, human IgG1, kappa, V domains shown)
VH: EVQLVESGGGLVQPGGSLRLSCAASGFTFSYYAMSWVRQAPGKGLEWVASISRGGDNTYYRDSVKGRFTTSRDNSKNTLYLQMNSLRAEDTATYYCARLNYNNYFDYWGQGVLVTVSS
VL: DIQMTQSPSSLSASVGDRVTITCQASQDIGNWLSWYQQKPGKAPKLLIYGATSLADGVPSRFSGSRSGTDYTLTISSLQPEDFATYYCLQAYSAPFTFGQGTKVEIKR
notes: as for B4
B12: humanized hA2-25C-H4/L3 (antibody, human IgG1, kappa, V domains shown)
VH: EVQLVESGGGLVQPGGSLRLSCAASGFTFSYYAMSWVRQAPGKGLEWVASISRGGDNTYYRDSVKGRFTTSRDNSKNTLYLQMNSLRAEDTATYYCARLNYNNYFDYWGQGVLVTVSS
VL: DIQMTQSPSSLSASVGDRVTITCQASQDIGNWLSWYQQKPGKSPKLLIYGATSLADGVPSRFSGSRSGTQYTLTISSLQPEDFATYYCLQAYSAPFTFGSGTKVEIKR
notes: as for B4
B13: humanized hA2-25C-H3/L3 (antibody, human IgG1, kappa, V domains shown)
VH: EVQLVESGGGLVQPGGSLRLSCAASGFTFSYYAMSWVRQAPGKGLEWVASISRGGDNTYYRDSVKGRFTTSRDNSKNTLYLQMNSLRAEDTAVYYCARLNYNNYFDYWGQGTLVTVSS
VL: DIQMTQSPSSLSASVGDRVTITCQASQDIGNWLSWYQQKPGKSPKLLIYGATSLADGVPSRFSGSRSGTQYTLTISSLQPEDFATYYCLQAYSAPFTFGSGTKVEIKR
notes: as for B4
B14: humanized hA2-25C-H4/L1 (antibody, human IgG1, kappa, V domains shown)
VH: EVQLVESGGGLVQPGGSLRLSCAASGFTFSYYAMSWVRQAPGKGLEWVASISRGGDNTYYRDSVKGRFTTSRDNSKNTLYLQMNSLRAEDTATYYCARLNYNNYFDYWGQGVLVTVSS
VL: DIQMTQSPSSLSASVGDRVTITCQASQDIGNWLSWYQQKPGKAPKLLIYGATSLADGVPSRFSGSGSGTDFTLTISSLQPEDFATYYCLQAYSAPFTFGQGTKVEIKR
notes: as for B4
B15: humanized hA2-25C-H3/L1 (antibody, human IgG1, kappa, V domains shown)
VH: EVQLVESGGGLVQPGGSLRLSCAASGFTFSYYAMSWVRQAPGKGLEWVASISRGGDNTYYRDSVKGRFTTSRDNSKNTLYLQMNSLRAEDTAVYYCARLNYNNYFDYWGQGTLVTVSS
VL: DIQMTQSPSSLSASVGDRVTITCQASQDIGNWLSWYQQKPGKAPKLLIYGATSLADGVPSRFSGSGSGTDFTLTISSLQPEDFATYYCLQAYSAPFTFGQGTKVEIKR
notes: as for B4

target: T1, Recombinant Human ALK2 Fc Chimera (Sino …); assay: SPR, Biacore T200; antigen immobilised on CM5 chip, antibody as analyte; bivalent binding model
Description: The dissociation constants of humanized hA2-15A-H4/L6, humanized hA2-27D-H2/L2, and humanized hA2-27D-H3/L4 prepared in Example 8)-5 for the antigen (Recombinant Human ALK2 Fc Chimera, Sino Biological Inc.) were measured in Biacore T200 (GE Healthcare Bio-Sciences Corp.) by using the antigen immobilized as a ligand and each antibody as an analyte. The antigen was added at 1.25 μg/mL for 60 seconds and immobilized onto a sensor chip CM5 (GE Healthcare Bio-Sciences Corp.). The running buffer used was HBS-EP+(10 mM HEPES (pH 7.4), 0.15 M NaCl, 3 mM EDTA, and 0.05% Surfactant P20). Serially diluted solutions (0.2 to 50 nM) of the antibody were added onto the antigen-immobilized chip at a flow rate of 30 μl/min for 300 seconds. Subsequently, the dissociation phase was monitored for 1800 seconds. A 10 mM glycine/hydrochloric acid solution (pH 1.5) was added thereto as a regenerating solution at a flow rate of 10 μl/min for 30 seconds twice. The data was analyzed using bivalent binding models of analytical software (BIAevaluation software, version 1.0) to calculate an association rate constant ka, a dissociation rate constant kd, and a dissociation constant (KD; KD=kd/ka).

**Q.** With B1 as the binder, how does the Kd read?
**A.** 5.7 nM

**Q.** How did the Kd turn out when B2 was run?
**A.** 4.3 nM

**Q.** How did the Kd turn out when B3 was run?
**A.** 4.3 nM

target: T2, human ALK2 extracellular domain with …; assay: SPR, Biacore T200; antibody captured from culture supernatant by anti-human IgG (Fc), antigen as analyte; 1:1 binding model
Description: The dissociation constants of the humanized A2-11E antibodies (IgG1) and the humanized A2-25C antibodies (IgG1) prepared in Example 18)-5 for the antigen (human ALK2 extracellular domain prepared in Example 14)-1) were measured using Biacore T200 (GE Healthcare Bio-Sciences Corp.) by the capture method which involves capturing each antibody as a ligand onto an immobilized anti-human IgG (Fc) antibody and assaying the antigen as an analyte. Approximately 1000 RU of the anti-human IgG (Fc) antibody (Human Antibody Capture kit, GE Healthcare Bio-Sciences Corp.) was covalently bound to a sensor chip CM5 (GE Healthcare Bio-Sciences Corp.) by the amine coupling method. Similarly, this antibody was immobilized onto a reference cell. The running buffer used was HBS-EP+(10 mM HEPES (pH 7.4), 0.15 M NaCl, 3 mM EDTA, and 0.05% Surfactant P20). The culture supernatant containing the antibody was added onto the anti-human IgG (Fc) antibody-immobilized chip for approximately 1 minute. Then, serially diluted solutions (0.78 to 200 nM) of the antigen were added thereto at a flow rate of 30 μl/min for 300 seconds. Subsequently, the dissociation phase was monitored for 600 seconds. 3 M MgCl₂ was added thereto as a regenerating solution at a flow rate of 10 μl/min for 30 seconds. The data was analyzed using 1:1 binding models of analytical software (BIAevaluation software, version 1.0) to calculate an association rate constant ka, a dissociation rate constant kd, and a dissociation constant (KD; KD=kd/ka).

**Q.** B4 was tested. Which Kd did it give?
**A.** 47.4 nM

**Q.** Which Kd does the source give for B5 here?
**A.** 31.3 nM

**Q.** With B6 as the binder, how does the Kd read?
**A.** 11.1 nM

**Q.** With B7 as the binder, how does the Kd read?
**A.** 19.9 nM

**Q.** For B8, which Kd is on record?
**A.** 63.1 nM

**Q.** For B9, which Kd is on record?
**A.** 18.5 nM

**Q.** With B10 as the binder, how does the Kd read?
**A.** 53.3 nM

**Q.** B11 was tested. Which Kd did it give?
**A.** 56.7 nM

**Q.** For B12, which Kd is on record?
**A.** 27.9 nM

**Q.** B13 was tested. Which Kd did it give?
**A.** 64.4 nM

**Q.** How did the Kd turn out when B14 was run?
**A.** 81.8 nM

**Q.** B15 was tested. Which Kd did it give?
**A.** 116 nM
